Here are results for one molecule from paper PMC2878922 (2011).

The target in experiment [1] is T1, CD47 ECD (Mus musculus, UniProt Q61735).
T1 chain: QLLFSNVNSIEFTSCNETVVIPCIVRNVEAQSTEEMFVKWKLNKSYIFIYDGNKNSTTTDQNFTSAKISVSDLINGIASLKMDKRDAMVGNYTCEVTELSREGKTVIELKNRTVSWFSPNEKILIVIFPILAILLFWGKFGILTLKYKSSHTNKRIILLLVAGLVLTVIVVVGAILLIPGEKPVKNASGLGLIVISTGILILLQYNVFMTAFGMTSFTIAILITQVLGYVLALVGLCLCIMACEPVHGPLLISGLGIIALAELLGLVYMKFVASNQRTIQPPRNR
Put plainly: flow cytometry saturation binding on CD47-coated beads.

For experiment [2], the target named is CD47 ECD (Homo sapiens, UniProt Q08722). The description is as above.
Chain of CD47 ECD (Homo sapiens, UniProt Q08722) (Q08722 19-323): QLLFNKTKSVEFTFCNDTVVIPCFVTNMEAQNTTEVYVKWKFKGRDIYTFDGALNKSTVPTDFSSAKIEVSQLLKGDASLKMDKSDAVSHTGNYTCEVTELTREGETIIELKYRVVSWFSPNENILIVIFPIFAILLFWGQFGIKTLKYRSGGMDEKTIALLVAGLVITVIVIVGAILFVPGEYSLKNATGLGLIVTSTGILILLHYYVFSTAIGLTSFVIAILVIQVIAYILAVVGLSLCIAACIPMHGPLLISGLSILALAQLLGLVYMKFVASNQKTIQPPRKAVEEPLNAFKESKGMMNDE

B1: SIRPα (variant 129_IgV, GST fusion) ECD (protein)
chain: KELKVTQPEKSVSVAAGDSTVLNCTLTSLLPVGPIRWYRGVGPSRLLIYSFAGEYVPRIRNVSDTTKRNNMDFSIRISNVTPADAGIYYCVKFQKGSSEPDTEIQSGGGTEVYVLAKPSPPEVSGPADRGIPDQKVNFTCKSHGFSPRNITLKWFKDGQELHPLETTVNPSGKNVSYNISSTVRVVLNSMDVNSKVICEVAHITLDRSPLRGIANLSNFIRVSPTVKVTQQSPTSMNQVNLTCRAERFYPEDLQLIWLENGNVSRNDTPKNLTKNTDGTYNYTSLFLVNSSAHREDVVFTCQVKHDQQPAITRNHTVLGFAHSSDQGSMQTFPDNNATHNWN
As a reminder, the Kd is the free concentration of one partner at which half of the binding sites on the other are occupied at equilibrium, for simple one-to-one binding. Read a high Kd as a looser complex. As for B1, the Kd with CD47 ECD [1] and in the experiment with CD47 ECD [2] was 0.22 µM each time.
